Assay results from PMC9482650, “Quantitative fragmentomics allow affinity mapping of interactomes” (Nature Communications, 2022).

Assays:
Experiment in all cases: holdup assay
Set-up in all cases: key: below the threshold = too weak to quantify, mostly under pKd 3.1 to 4
USH1C_2, Q9Y6N9 = target: T1, USH1C_2, Q9Y6N9
T1 sequence (Q9Y6N9 206-303, limits assumed, looked up): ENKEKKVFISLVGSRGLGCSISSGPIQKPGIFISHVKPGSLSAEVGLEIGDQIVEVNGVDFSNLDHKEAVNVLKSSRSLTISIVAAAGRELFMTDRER

SCRIB_4, Q14160 = target: SCRIB_4, Q14160
TJP1_1, Q07157 = target: TJP1_1, Q07157
DVL2, O14641 = target: DVL2, O14641
GIPC1, O14908 = target: T2, GIPC1, O14908
T2 sequence (O14908 128-223, limits assumed, looked up): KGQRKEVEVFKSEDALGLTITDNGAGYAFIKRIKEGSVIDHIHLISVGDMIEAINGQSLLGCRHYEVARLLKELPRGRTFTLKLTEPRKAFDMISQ

PDLIM3, Q53GG5 = target: T3, PDLIM3, Q53GG5
T3 sequence (Q53GG5 1-94, limits assumed, looked up): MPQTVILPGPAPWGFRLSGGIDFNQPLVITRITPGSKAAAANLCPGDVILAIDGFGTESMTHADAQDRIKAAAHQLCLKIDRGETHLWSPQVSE

NHERF1_2, O14745 = target: T4, NHERF1_2, O14745
T4 sequence (O14745 149-244, limits assumed, looked up): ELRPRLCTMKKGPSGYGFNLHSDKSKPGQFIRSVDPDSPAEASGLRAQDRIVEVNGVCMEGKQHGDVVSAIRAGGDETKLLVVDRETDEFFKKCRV

GIPC3, Q8TF64 = target: GIPC3, Q8TF64
MPP5, Q8N3R9 = target: T5, MPP5, Q8N3R9
T5 sequence (Q8N3R9 251-346, limits assumed, looked up): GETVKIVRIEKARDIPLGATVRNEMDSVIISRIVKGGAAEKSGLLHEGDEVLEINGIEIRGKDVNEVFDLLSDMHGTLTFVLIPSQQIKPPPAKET

MAST3, O60307 = target: MAST3, O60307
PDZD4, Q76G19 = target: T6, PDZD4, Q76G19
T6 sequence (Q76G19 125-224, limits assumed, looked up): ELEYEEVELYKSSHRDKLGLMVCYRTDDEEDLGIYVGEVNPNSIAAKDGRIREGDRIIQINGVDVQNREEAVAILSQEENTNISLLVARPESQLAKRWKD

RIMS2, Q9UQ26 = target: RIMS2, Q9UQ26
MPP1, Q00013 = target: T7, MPP1, Q00013
T7 sequence (Q00013 66-162, limits assumed, looked up): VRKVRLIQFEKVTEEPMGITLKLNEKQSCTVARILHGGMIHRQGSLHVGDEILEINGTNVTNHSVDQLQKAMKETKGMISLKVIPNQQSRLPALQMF

MAGI2_1, Q86UL8 = target: T8, MAGI2_1, Q86UL8
T8 sequence (Q86UL8 12-111, limits assumed, looked up): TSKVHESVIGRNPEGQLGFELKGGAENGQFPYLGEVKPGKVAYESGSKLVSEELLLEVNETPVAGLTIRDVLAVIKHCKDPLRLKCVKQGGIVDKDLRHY

PDZD2_3, O15018 = target: T9, PDZD2_3, O15018
T9 sequence (O15018 581-682, limits assumed, looked up): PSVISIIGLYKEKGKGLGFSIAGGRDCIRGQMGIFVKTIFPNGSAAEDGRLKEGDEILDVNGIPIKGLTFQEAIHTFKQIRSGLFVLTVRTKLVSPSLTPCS

LNX2_4, Q8N448 = target: T10, LNX2_4, Q8N448
T10 sequence (Q8N448 595-690, limits assumed, looked up): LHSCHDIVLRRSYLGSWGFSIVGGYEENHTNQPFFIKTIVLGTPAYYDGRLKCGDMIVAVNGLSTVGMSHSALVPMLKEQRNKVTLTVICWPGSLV

SHROOM2, Q13796 = target: T11, SHROOM2, Q13796
T11 sequence (Q13796 21-118, limits assumed, looked up): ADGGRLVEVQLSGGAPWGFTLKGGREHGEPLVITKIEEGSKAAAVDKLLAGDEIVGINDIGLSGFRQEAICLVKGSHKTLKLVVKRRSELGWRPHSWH

MPDZ_11, O75970 = target: T12, MPDZ_11, O75970
T12 sequence (O75970 1720-1817, limits assumed, looked up): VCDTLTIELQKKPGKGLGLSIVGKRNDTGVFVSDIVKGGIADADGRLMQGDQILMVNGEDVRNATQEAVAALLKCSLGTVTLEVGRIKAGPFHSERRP

CNKSR3, Q6P9H4 = target: CNKSR3, Q6P9H4
SHANK3, Q9BYB0 = target: T13, SHANK3, Q9BYB0
T13 sequence (Q9BYB0 641-750, limits assumed, looked up): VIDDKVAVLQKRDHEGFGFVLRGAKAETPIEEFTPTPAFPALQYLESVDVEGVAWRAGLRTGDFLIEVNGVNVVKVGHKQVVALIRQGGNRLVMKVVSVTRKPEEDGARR

RIMS1, Q86UR5 = target: RIMS1, Q86UR5
PDZD2_4, O15018 = target: T14, PDZD2_4, O15018; conditions: plain residues with an end cap or a label only (N-terminal biotin on a linker: ttds)
T14 sequence (O15018 723-823, limits assumed, looked up): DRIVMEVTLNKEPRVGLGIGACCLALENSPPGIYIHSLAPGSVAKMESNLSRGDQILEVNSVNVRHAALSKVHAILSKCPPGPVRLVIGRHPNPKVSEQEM

[1] = plain residues with an end cap or a label only (N-terminal biotin on a linker: none)
[2] = plain residues with an end cap or a label only (N-terminal biotin on a linker: ttds)

Chain of DVL2, O14641 (O14641 260-359): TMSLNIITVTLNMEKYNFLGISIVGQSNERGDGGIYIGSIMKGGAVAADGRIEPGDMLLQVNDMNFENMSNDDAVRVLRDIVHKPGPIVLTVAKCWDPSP
Chain of CNKSR3, Q6P9H4 (Q6P9H4 203-303): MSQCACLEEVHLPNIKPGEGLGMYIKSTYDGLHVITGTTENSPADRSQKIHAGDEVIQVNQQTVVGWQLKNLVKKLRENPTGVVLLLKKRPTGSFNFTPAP
Chain of TJP1_1, Q07157 (Q07157 18-120): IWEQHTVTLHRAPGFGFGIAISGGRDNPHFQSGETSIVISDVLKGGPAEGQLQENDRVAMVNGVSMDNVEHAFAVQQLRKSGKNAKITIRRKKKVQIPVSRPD
Chain of RIMS2, Q9UQ26 (Q9UQ26 637-758): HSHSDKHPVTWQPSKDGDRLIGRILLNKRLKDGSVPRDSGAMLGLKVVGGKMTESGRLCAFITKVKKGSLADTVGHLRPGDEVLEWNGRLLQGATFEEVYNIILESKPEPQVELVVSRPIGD
Chain of MAST3, O60307 (O60307 945-1048): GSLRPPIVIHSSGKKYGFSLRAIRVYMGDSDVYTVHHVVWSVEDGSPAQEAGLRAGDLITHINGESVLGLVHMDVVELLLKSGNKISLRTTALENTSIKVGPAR
Chain of GIPC3, Q8TF64 (Q8TF64 107-202): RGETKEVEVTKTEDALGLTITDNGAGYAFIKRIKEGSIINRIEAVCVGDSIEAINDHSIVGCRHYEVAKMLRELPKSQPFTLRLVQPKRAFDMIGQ
Chain of RIMS1, Q86UR5 (Q86UR5 584-692): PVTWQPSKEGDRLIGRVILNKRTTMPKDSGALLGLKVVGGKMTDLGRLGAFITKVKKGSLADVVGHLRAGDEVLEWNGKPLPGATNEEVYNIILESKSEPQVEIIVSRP
Chain of SCRIB_4, Q14160 (Q14160 1095-1204): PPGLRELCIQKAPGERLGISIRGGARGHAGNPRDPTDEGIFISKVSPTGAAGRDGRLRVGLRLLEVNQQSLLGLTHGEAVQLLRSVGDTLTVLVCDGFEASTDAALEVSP

Binder: NLNSSRVPDLLV [SARS-CoV2-E, P0DTC4]
- pKd (USH1C_2, Q9Y6N9; [1]): below the threshold
- pKd (SCRIB_4, Q14160; [1]): below the threshold
- pKd (TJP1_1, Q07157; [1]): below the threshold
- pKd (DVL2, O14641; [1]): below the threshold
- pKd (GIPC1, O14908; [1]): below the threshold
- pKd (PDLIM3, Q53GG5; [1]): below the threshold
- pKd (NHERF1_2, O14745; [1]): 4.76
- pKd (GIPC3, Q8TF64; [1]): below the threshold
- pKd (MPP5, Q8N3R9; [1]): 4.01
- pKd (MAST3, O60307; [1]): below the threshold
- pKd (PDZD4, Q76G19; [1]): below the threshold
- pKd (RIMS2, Q9UQ26; [1]): below the threshold
- pKd (MPP1, Q00013; [1]): below the threshold
- pKd (MAGI2_1, Q86UL8; [1]): below the threshold
- pKd (PDZD2_3, O15018; [1]): below the threshold
- pKd (LNX2_4, Q8N448; [1]): below the threshold
- pKd (SHROOM2, Q13796; [1]): below the threshold
- pKd (MPDZ_11, O75970; [1]): below the threshold
- pKd (CNKSR3, Q6P9H4; [1]): below the threshold
- pKd (SHANK3, Q9BYB0; [1]): 3.83
- pKd (RIMS1, Q86UR5; [1]): below the threshold

Binder: SKPTRRETEV [HPV35-E6, P27228]
- pKd (SCRIB_4, Q14160; [2]): 3.78
- pKd (TJP1_1, Q07157; [2]): below the threshold
- pKd (DVL2, O14641; [2]): below the threshold
- pKd (GIPC1, O14908; [2]): 4.69
- pKd (PDLIM3, Q53GG5; [2]): below the threshold
- pKd (NHERF1_2, O14745; [2]): below the threshold
- pKd (MPP5, Q8N3R9; [2]): below the threshold
- pKd (MAST3, O60307; [2]): below the threshold
- pKd (PDZD4, Q76G19; [2]): 3.55
- pKd (RIMS2, Q9UQ26; [2]): below the threshold
- pKd (MPP1, Q00013; [2]): below the threshold
- pKd (PDZD2_3, O15018; [2]): below the threshold
- pKd (SHROOM2, Q13796; [2]): below the threshold
- pKd (MPDZ_11, O75970; [2]): below the threshold
- pKd (CNKSR3, Q6P9H4; [2]): 3.57
- pKd (SHANK3, Q9BYB0; [2]): below the threshold
- pKd (PDZD2_4, O15018): below the threshold
- pKd (RIMS1, Q86UR5; [2]): below the threshold

Binder: QRQARSETLV [HPV59-E6, Q81964]
- pKd (USH1C_2, Q9Y6N9; [2]): below the threshold
- pKd (SCRIB_4, Q14160; [2]): below the threshold
- pKd (TJP1_1, Q07157; [2]): below the threshold
- pKd (DVL2, O14641; [2]): below the threshold
- pKd (GIPC1, O14908; [2]): below the threshold
- pKd (PDLIM3, Q53GG5; [2]): below the threshold
- pKd (NHERF1_2, O14745; [2]): below the threshold
- pKd (GIPC3, Q8TF64; [2]): below the threshold
- pKd (MPP5, Q8N3R9; [2]): below the threshold
- pKd (MAST3, O60307; [2]): below the threshold
- pKd (PDZD4, Q76G19; [2]): below the threshold
- pKd (RIMS2, Q9UQ26; [2]): below the threshold
- pKd (MPP1, Q00013; [2]): 6.03
- pKd (MAGI2_1, Q86UL8; [2]): below the threshold
- pKd (PDZD2_3, O15018; [2]): below the threshold
- pKd (LNX2_4, Q8N448; [2]): 4.61
- pKd (SHROOM2, Q13796; [2]): below the threshold
- pKd (MPDZ_11, O75970; [2]): below the threshold
- pKd (CNKSR3, Q6P9H4; [2]): below the threshold
- pKd (SHANK3, Q9BYB0; [2]): 4.22
- pKd (PDZD2_4, O15018): below the threshold
- pKd (RIMS1, Q86UR5; [2]): below the threshold

Binder: SSLQSLETSV [ATP2B4, P23634]
- pKd (USH1C_2, Q9Y6N9; [2]): below the threshold
- pKd (SCRIB_4, Q14160; [2]): 4.38
- pKd (TJP1_1, Q07157; [2]): below the threshold
- pKd (PDLIM3, Q53GG5; [2]): below the threshold
- pKd (NHERF1_2, O14745; [2]): below the threshold
- pKd (GIPC3, Q8TF64; [2]): below the threshold
- pKd (MPP5, Q8N3R9; [2]): below the threshold
- pKd (MAST3, O60307; [2]): below the threshold
- pKd (PDZD4, Q76G19; [2]): below the threshold
- pKd (RIMS2, Q9UQ26; [2]): below the threshold
- pKd (MPP1, Q00013; [2]): 4.23
- pKd (MAGI2_1, Q86UL8; [2]): below the threshold
- pKd (PDZD2_3, O15018; [2]): below the threshold
- pKd (LNX2_4, Q8N448; [2]): below the threshold
- pKd (SHROOM2, Q13796; [2]): below the threshold
- pKd (MPDZ_11, O75970; [2]): below the threshold
- pKd (CNKSR3, Q6P9H4; [2]): below the threshold
- pKd (SHANK3, Q9BYB0; [2]): below the threshold
- pKd (PDZD2_4, O15018): below the threshold
- pKd (RIMS1, Q86UR5; [2]): below the threshold
